Reference: US20090202556A1 (Kyowa Kirin, published 2009)
Each block holds one binder with its values, some of them ahead of it.

How the values were obtained:
[1] = molecular target: T1, human CLDN4 (Claudin-4) expressed by human cancer cell lines (Capan-2, HPAF-II, MCF7, HT-29, SW480, 22Rv1, DU … (human, UniProt O14493 1-209)); assay: FCM on live MCF7 cells (express both CLDN3 and CLDN4), 5 µg/ml
T1 construct: Endogenous protein on cell lines; MCF7 is said to express both CLDN3 and CLDN4; also called CLDN4 expressed in breast cancer cells, colorectal cancer cells and prostate cancer cells
T1 sequence: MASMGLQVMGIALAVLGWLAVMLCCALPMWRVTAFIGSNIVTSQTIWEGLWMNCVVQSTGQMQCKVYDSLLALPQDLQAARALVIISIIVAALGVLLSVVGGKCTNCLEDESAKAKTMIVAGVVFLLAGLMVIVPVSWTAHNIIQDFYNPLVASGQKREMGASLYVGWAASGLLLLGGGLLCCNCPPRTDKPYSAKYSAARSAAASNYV
Method: (§1) Pancreatic cancer cell line Capan-2 which expresses CLDN4 was used as the evaluation cell of cKM3900, and a breast cancer cell line MCF7 which expresses both of CLDN3 and CLDN4 was used as the evaluation cell of cKM3907. The cells were cultured for 3 to 4 days and peeled off using 0.02% EDTA solution (manufactured by Nacalai Tesque) to recover the resulting cells. The thus recovered cells were washed with PBS and, in order to avoid nonspecific adsorption of antibodies, blocked using BSA-PBS at ice temperature for 30 minutes. The cells were dispensed at 1 to 5×10⁵ cells/100 μl BSA-PBS into a 96-well U bottom plate and centrifuged (1,500 rpm, 5 minutes), the supernatant was removed and then 5 μg/ml of a negative control antibody cKM3034 (anti-FGF8 human chimeric antibody) [US 2004/0091480], an anti-CLDN4 monoclonal antibody KM3900 or KM3907 or an anti-CLDN4 human chimeric antibody cKM3900 or cKM3907 was dispensed as the primary antibody at 100 μl/well and allowed to react at ice temperature for 60 minutes. […] After washing again once with PBS and subsequently suspending in PBS, the fluorescent intensity was measured by FCM (manufactured by Beckman Coulter).

[2] = molecular target: T1, human CLDN4 (Claudin-4) expressed by …; assay: FCM on live Capan-2 cells (express CLDN4), 5 µg/ml
Method: as §1

binding result [1]: binds
B1: anti-CLDN4 human chimeric antibody cKM3907 (antibody, V domains shown)
VH: QVQLQQSGPELVKPGASVKISCKASGYAISTSWMNWVKQRPGKGLEWIGRINPGDGNTNYNGKFMAKATLTADKPSSTAYMQLSSLTSEDSAVYFCTRGDRWSGAMDYWGQGTSVTVSS
VL: GNVLTQSPAIMSASPGEKVTMTCRASSSVSSSYLHWYQQKSGASPKLWIYSTSNLASGVPVRFSGSGSGTSYSLTISSVEAEDAATYYCQQYSGFPLTFGAGTKLELK
notes: Human chimeric IgG: mouse V regions of KM3907 joined to the human CH and CL of vector pKANTEX93 (WO 97/10354); also called cKM3907-93 (expression vector)

binding result [2]: binds
B2: anti-CLDN4 human chimeric antibody cKM3900 (antibody, V domains shown)
VH: EVQLQQSGPELVKPGASVKISCKASGYTFTDYYMNWVKQSHGKSLEWIGDVVPNNGVPTYNQKFKGKATLTVDKSSSTAYMELRSLTSEDSAVYYCARPHYYYAGRSGAMDYWGQGTSVTVSS
VL: QIVLTQSPAIMSASLGERVTMTCTASSTVSSTYLHWYQQKPGSSPKLWIYSTSNLASGVPARFSGSGSGTSYSLTISSMEAEDAATYYCHQYHRSPPTFGGGTKLEIK
notes: Human chimeric IgG: mouse V regions of KM3900 joined to the human CH and CL of vector pKANTEX93 (WO 97/10354); also called cKM3900-93 (expression vector)
